Experimental data from PMC2835468 (Matrix biology : journal of the International Society for …, 2009).

How the values were obtained:
Assay in all cases: enzyme inhibition kinetics
[1] = biological target: T1, ADAMTS4-4 (human ADAMTS-4 deletion mutant, C-terminal FLAG-tag) (human, UniProt O75173 213-519)
T1 sequence (looked up): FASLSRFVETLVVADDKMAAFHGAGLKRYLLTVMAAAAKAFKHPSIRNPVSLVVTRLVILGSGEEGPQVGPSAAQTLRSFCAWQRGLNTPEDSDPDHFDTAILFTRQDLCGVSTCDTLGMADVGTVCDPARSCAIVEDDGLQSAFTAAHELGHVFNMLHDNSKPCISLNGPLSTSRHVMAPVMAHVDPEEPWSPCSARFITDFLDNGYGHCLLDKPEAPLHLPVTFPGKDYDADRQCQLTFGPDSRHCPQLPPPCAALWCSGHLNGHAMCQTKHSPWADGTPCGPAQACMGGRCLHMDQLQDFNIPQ

[2] = biological target: T2, ADAMTS5-3 (human ADAMTS-5 deletion mutant, C-terminal FLAG-tag) (human, UniProt Q9UNA0 262-731)
T2 sequence (looked up): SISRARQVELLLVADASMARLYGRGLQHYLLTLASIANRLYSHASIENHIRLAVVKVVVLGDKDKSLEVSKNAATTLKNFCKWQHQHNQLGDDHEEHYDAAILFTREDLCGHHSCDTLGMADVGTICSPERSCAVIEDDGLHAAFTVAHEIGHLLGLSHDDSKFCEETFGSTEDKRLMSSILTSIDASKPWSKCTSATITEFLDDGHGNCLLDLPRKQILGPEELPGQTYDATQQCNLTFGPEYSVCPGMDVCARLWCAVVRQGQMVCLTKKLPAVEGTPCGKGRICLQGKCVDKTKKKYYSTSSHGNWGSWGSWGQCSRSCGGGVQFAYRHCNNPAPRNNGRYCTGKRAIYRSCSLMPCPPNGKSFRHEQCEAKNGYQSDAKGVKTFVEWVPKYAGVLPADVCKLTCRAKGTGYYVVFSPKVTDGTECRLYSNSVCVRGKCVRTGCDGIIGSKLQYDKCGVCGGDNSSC

[3] = biological target: T3, ADAMTS5-2 (human ADAMTS-5 deletion mutant, C-terminal FLAG-tag) (human, UniProt Q9UNA0 262-874)
T3 sequence (looked up): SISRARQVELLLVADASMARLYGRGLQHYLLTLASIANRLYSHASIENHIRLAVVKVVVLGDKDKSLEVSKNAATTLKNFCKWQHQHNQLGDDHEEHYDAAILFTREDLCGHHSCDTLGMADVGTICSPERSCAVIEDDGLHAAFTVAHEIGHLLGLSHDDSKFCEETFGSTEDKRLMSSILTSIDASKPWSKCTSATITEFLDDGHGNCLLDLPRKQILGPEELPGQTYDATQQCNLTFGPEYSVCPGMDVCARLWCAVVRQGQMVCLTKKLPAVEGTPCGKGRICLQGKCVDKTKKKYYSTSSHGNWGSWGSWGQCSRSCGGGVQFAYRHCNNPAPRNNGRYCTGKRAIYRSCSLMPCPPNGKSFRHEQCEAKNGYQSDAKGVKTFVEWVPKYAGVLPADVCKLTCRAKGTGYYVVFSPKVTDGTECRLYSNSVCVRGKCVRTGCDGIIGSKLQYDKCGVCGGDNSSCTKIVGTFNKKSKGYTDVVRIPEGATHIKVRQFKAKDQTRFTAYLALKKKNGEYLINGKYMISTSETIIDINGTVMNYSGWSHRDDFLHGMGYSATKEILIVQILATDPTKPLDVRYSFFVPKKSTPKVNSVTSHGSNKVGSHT

[4] = biological target: T4, ADAMTS5-5 (human ADAMTS-5, catalytic and disintegrin domain, C-terminal FLAG-tag) (human, UniProt Q9UNA0 262-566)
T4 sequence (looked up): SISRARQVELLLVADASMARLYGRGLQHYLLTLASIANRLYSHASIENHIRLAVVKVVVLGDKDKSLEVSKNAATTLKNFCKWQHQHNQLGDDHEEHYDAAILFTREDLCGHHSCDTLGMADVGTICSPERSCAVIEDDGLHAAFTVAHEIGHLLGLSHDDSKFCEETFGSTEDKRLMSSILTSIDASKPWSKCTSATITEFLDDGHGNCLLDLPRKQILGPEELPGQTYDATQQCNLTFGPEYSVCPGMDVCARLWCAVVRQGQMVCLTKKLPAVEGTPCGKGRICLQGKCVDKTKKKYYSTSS

B1: FLAG-tagged glycosylated human TIMP-3 (full-length tissue inhibitor of metalloproteinases 3), expressed in HEK293 (natural protein, UniProt P35625 24-211, looked up)
chain: CTCSPSHPQDAFCNSDIVIRAKVVGKKLVKEGPFGTLVYTIKQMKMYRGFTKMPHVQYIHTEASESLCGLKLEVNKYQYLLTGRVYDGKMYTGLCNFVERWDQLTLSQRKGLNYRYHLGCNCKIKSCYYLPCFVTSKNECLWTDMLSNFGYPGYQSKHYACIRQKGGYCSWYRGWAPPDKSIINATDP
modifications: glycosylated (only the 27 kDa glycosylated form remained after purification; single N-glycosylation site in the C-terminal domain)
B1 gave a Ki [1] of 0.51 nM, a Ki [2] of 1 nM and a Ki [3] of 0.72 nM. It also gave a Ki [4] of 1.17 nM.
